Source: PMC12262686 (bioRxiv, 2025)
Where “and” joins values, the source holds several entries; their conditions need not be identical. Identical values can stand only once.

T1: Speckle-type POZ protein (SPOP), full-length, wild type (human), O43791
T1 chain: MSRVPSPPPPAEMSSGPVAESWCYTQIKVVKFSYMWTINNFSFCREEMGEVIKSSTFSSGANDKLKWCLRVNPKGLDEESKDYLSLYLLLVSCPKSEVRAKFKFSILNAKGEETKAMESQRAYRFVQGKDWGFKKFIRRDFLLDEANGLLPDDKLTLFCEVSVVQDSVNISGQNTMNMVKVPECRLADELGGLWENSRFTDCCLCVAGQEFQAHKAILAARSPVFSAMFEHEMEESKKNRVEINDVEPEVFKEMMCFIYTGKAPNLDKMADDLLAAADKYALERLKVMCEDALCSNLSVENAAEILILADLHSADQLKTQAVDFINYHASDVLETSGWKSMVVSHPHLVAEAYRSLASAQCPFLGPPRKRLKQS

B1: SPOP E47Q (natural protein)
chain: MSRVPSPPPPAEMSSGPVAESWCYTQIKVVKFSYMWTINNFSFCREQMGEVIKSSTFSSGANDKLKWCLRVNPKGLDEESKDYLSLYLLLVSCPKSEVRAKFKFSILNAKGEETKAMESQRAYRFVQGKDWGFKKFIRRDFLLDEANGLLPDDKLTLFCEVSVVQDSVNISGQNTMNMVKVPECRLADELGGLWENSRFTDCCLCVAGQEFQAHKAILAARSPVFSAMFEHEMEESKKNRVEINDVEPEVFKEMMCFIYTGKAPNLDKMADDLLAAADKYALERLKVMCEDALCSNLSVENAAEILILADLHSADQLKTQAVDFINYHASDVLETSGWKSMVVSHPHLVAEAYRSLASAQCPFLGPPRKRLKQS
B2: SPOP R70L (natural protein)
chain: MSRVPSPPPPAEMSSGPVAESWCYTQIKVVKFSYMWTINNFSFCREEMGEVIKSSTFSSGANDKLKWCLLVNPKGLDEESKDYLSLYLLLVSCPKSEVRAKFKFSILNAKGEETKAMESQRAYRFVQGKDWGFKKFIRRDFLLDEANGLLPDDKLTLFCEVSVVQDSVNISGQNTMNMVKVPECRLADELGGLWENSRFTDCCLCVAGQEFQAHKAILAARSPVFSAMFEHEMEESKKNRVEINDVEPEVFKEMMCFIYTGKAPNLDKMADDLLAAADKYALERLKVMCEDALCSNLSVENAAEILILADLHSADQLKTQAVDFINYHASDVLETSGWKSMVVSHPHLVAEAYRSLASAQCPFLGPPRKRLKQS
B3: SPOP G128S (natural protein)
chain: MSRVPSPPPPAEMSSGPVAESWCYTQIKVVKFSYMWTINNFSFCREEMGEVIKSSTFSSGANDKLKWCLRVNPKGLDEESKDYLSLYLLLVSCPKSEVRAKFKFSILNAKGEETKAMESQRAYRFVQSKDWGFKKFIRRDFLLDEANGLLPDDKLTLFCEVSVVQDSVNISGQNTMNMVKVPECRLADELGGLWENSRFTDCCLCVAGQEFQAHKAILAARSPVFSAMFEHEMEESKKNRVEINDVEPEVFKEMMCFIYTGKAPNLDKMADDLLAAADKYALERLKVMCEDALCSNLSVENAAEILILADLHSADQLKTQAVDFINYHASDVLETSGWKSMVVSHPHLVAEAYRSLASAQCPFLGPPRKRLKQS
B4: SPOP K134N, full-length (natural protein)
chain: MSRVPSPPPPAEMSSGPVAESWCYTQIKVVKFSYMWTINNFSFCREEMGEVIKSSTFSSGANDKLKWCLRVNPKGLDEESKDYLSLYLLLVSCPKSEVRAKFKFSILNAKGEETKAMESQRAYRFVQGKDWGFNKFIRRDFLLDEANGLLPDDKLTLFCEVSVVQDSVNISGQNTMNMVKVPECRLADELGGLWENSRFTDCCLCVAGQEFQAHKAILAARSPVFSAMFEHEMEESKKNRVEINDVEPEVFKEMMCFIYTGKAPNLDKMADDLLAAADKYALERLKVMCEDALCSNLSVENAAEILILADLHSADQLKTQAVDFINYHASDVLETSGWKSMVVSHPHLVAEAYRSLASAQCPFLGPPRKRLKQS
B5: SPOP K129E (natural protein)
chain: MSRVPSPPPPAEMSSGPVAESWCYTQIKVVKFSYMWTINNFSFCREEMGEVIKSSTFSSGANDKLKWCLRVNPKGLDEESKDYLSLYLLLVSCPKSEVRAKFKFSILNAKGEETKAMESQRAYRFVQGEDWGFKKFIRRDFLLDEANGLLPDDKLTLFCEVSVVQDSVNISGQNTMNMVKVPECRLADELGGLWENSRFTDCCLCVAGQEFQAHKAILAARSPVFSAMFEHEMEESKKNRVEINDVEPEVFKEMMCFIYTGKAPNLDKMADDLLAAADKYALERLKVMCEDALCSNLSVENAAEILILADLHSADQLKTQAVDFINYHASDVLETSGWKSMVVSHPHLVAEAYRSLASAQCPFLGPPRKRLKQS
B6: SPOP R221C (natural protein)
chain: MSRVPSPPPPAEMSSGPVAESWCYTQIKVVKFSYMWTINNFSFCREEMGEVIKSSTFSSGANDKLKWCLRVNPKGLDEESKDYLSLYLLLVSCPKSEVRAKFKFSILNAKGEETKAMESQRAYRFVQGKDWGFKKFIRRDFLLDEANGLLPDDKLTLFCEVSVVQDSVNISGQNTMNMVKVPECRLADELGGLWENSRFTDCCLCVAGQEFQAHKAILAACSPVFSAMFEHEMEESKKNRVEINDVEPEVFKEMMCFIYTGKAPNLDKMADDLLAAADKYALERLKVMCEDALCSNLSVENAAEILILADLHSADQLKTQAVDFINYHASDVLETSGWKSMVVSHPHLVAEAYRSLASAQCPFLGPPRKRLKQS
B7: SPOP G128D, full-length (natural protein)
chain: MSRVPSPPPPAEMSSGPVAESWCYTQIKVVKFSYMWTINNFSFCREEMGEVIKSSTFSSGANDKLKWCLRVNPKGLDEESKDYLSLYLLLVSCPKSEVRAKFKFSILNAKGEETKAMESQRAYRFVQDKDWGFKKFIRRDFLLDEANGLLPDDKLTLFCEVSVVQDSVNISGQNTMNMVKVPECRLADELGGLWENSRFTDCCLCVAGQEFQAHKAILAARSPVFSAMFEHEMEESKKNRVEINDVEPEVFKEMMCFIYTGKAPNLDKMADDLLAAADKYALERLKVMCEDALCSNLSVENAAEILILADLHSADQLKTQAVDFINYHASDVLETSGWKSMVVSHPHLVAEAYRSLASAQCPFLGPPRKRLKQS
B8: SPOP S96R, full-length (natural protein)
chain: MSRVPSPPPPAEMSSGPVAESWCYTQIKVVKFSYMWTINNFSFCREEMGEVIKSSTFSSGANDKLKWCLRVNPKGLDEESKDYLSLYLLLVSCPKREVRAKFKFSILNAKGEETKAMESQRAYRFVQGKDWGFKKFIRRDFLLDEANGLLPDDKLTLFCEVSVVQDSVNISGQNTMNMVKVPECRLADELGGLWENSRFTDCCLCVAGQEFQAHKAILAARSPVFSAMFEHEMEESKKNRVEINDVEPEVFKEMMCFIYTGKAPNLDKMADDLLAAADKYALERLKVMCEDALCSNLSVENAAEILILADLHSADQLKTQAVDFINYHASDVLETSGWKSMVVSHPHLVAEAYRSLASAQCPFLGPPRKRLKQS
B9: SPOP M48I (natural protein)
chain: MSRVPSPPPPAEMSSGPVAESWCYTQIKVVKFSYMWTINNFSFCREEIGEVIKSSTFSSGANDKLKWCLRVNPKGLDEESKDYLSLYLLLVSCPKSEVRAKFKFSILNAKGEETKAMESQRAYRFVQGKDWGFKKFIRRDFLLDEANGLLPDDKLTLFCEVSVVQDSVNISGQNTMNMVKVPECRLADELGGLWENSRFTDCCLCVAGQEFQAHKAILAARSPVFSAMFEHEMEESKKNRVEINDVEPEVFKEMMCFIYTGKAPNLDKMADDLLAAADKYALERLKVMCEDALCSNLSVENAAEILILADLHSADQLKTQAVDFINYHASDVLETSGWKSMVVSHPHLVAEAYRSLASAQCPFLGPPRKRLKQS
B10: Speckle-type POZ protein (SPOP), full-length, wild type, O43791 1-374 (natural protein)
chain: MSRVPSPPPPAEMSSGPVAESWCYTQIKVVKFSYMWTINNFSFCREEMGEVIKSSTFSSGANDKLKWCLRVNPKGLDEESKDYLSLYLLLVSCPKSEVRAKFKFSILNAKGEETKAMESQRAYRFVQGKDWGFKKFIRRDFLLDEANGLLPDDKLTLFCEVSVVQDSVNISGQNTMNMVKVPECRLADELGGLWENSRFTDCCLCVAGQEFQAHKAILAARSPVFSAMFEHEMEESKKNRVEINDVEPEVFKEMMCFIYTGKAPNLDKMADDLLAAADKYALERLKVMCEDALCSNLSVENAAEILILADLHSADQLKTQAVDFINYHASDVLETSGWKSMVVSHPHLVAEAYRSLASAQCPFLGPPRKRLKQS

These molecules were tested against BRD3 peptide containing the main SPOP-binding motif of BRD3 (assay: fluorescence polarisation). Settings: not given.
“SPOP MATH domain K134N (from UniProt O43791 31-161) (domain or fragment)” gave a fold weaker binding than the WT MATH domain of 4 fold.
In the case of “SPOP K134N, full-length (from UniProt O43791 1-374) (natural protein)”, the fold weaker binding than full-length WT is reported as 11 fold.

Target: the molecule itself
Experiment: negative-stain TEM
Settings: not given
B1: binds.
B2: binds.
B3: binds.
B4: binds.
B5: binds.
B6: binds.
B7: binds.
B8: binds.
B9: binds.

Target: T1, Speckle-type POZ protein (SPOP), …
Experiment: cryo-EM structure
Settings: remark: other sources report otherwise
With B10 the stoichiometry N was 48 monomers and 56 monomers.
